Test results published in US20230145766A1.

Biological target: IL-2 receptor on the surface of human lymphocytes (T cells, NK cells, Treg cells from PBMC) (human)
Assay: cell-based or functional assay

Substance: human wild-type IL-2 (rhIL-2, R&D systems, Catalog No. 202-IL) (from UniProt P60568 21-153) (ligand)
- CD25-pSTAT5 EC50 (CD8+ CD25- T cells): 0.47 nM
- EC50 of pSTAT5, CD4+CD25- T cells: 0.102 nM
- EC50 of pSTAT5, CD8+ T cells: 1.69 nM
- EC50 of pSTAT5, NK cells: 24.2 pM
- EC50 of pSTAT5, Treg cells: 0.388 pM
